According to patent US20240026407A1, “MODIFICATION OF SAPONINS” (GLAXOSMITHKLINE BIOLOGICALS SA, priority 2020, published 2024):

Legend:
Assay type in all cases: biochemical, Quillaja saponaria
[1] = Experiment 6-1: specificity of rhamnosidases towards other rhamnose residues (C3 saccharide rhamnose, C28 saccharide rhamnose); conditions: TBE 2%, pH 7.5, 30 degC, 18 h; LCMS/MS; negative controls 0.18, 0.17
[2] = Experiment 6-1: screening of rhamnosidases for derhamnosylation of saponins in treated bark extract (2%), QS-17 2310 to QS-18 2164 (PAR %); conditions: TBE 2%, pH 7.5, 30 degC, 18 h; TIC peak area ratio percent, LCMS/MS; negative controls 3.061, 2.429
[3] = Experiment 6-1: screening of rhamnosidases for derhamnosylation of saponins in treated bark extract (2%), desglucosyl-QS-17 2134 to QS-21 1988 (PAR %); conditions: TBE 2%, pH 7.5, 30 degC, 18 h; TIC peak area ratio percent, LCMS/MS; negative controls 2.719, 2.158
[4] = Experiment 6-1: screening of rhamnosidases for derhamnosylation of saponins in treated bark extract (2%), QS-17 2296 to QS-18 2150 (PAR %); conditions: TBE 2%, pH 7.5, 30 degC, 18 h; TIC peak area ratio percent of rhamnosylated starting saponin to derhamnosylated product, LCMS/MS; negative controls 4.876, 5.225

Row | Molecule | ratio PP/QS-21 [1] | Peak57 (PAR %) [2] [%] | Peak75 (PAR %) [3] [%] | QS-17 (PAR %) [4] [%]
1 | 1006 (protein, listed as Geobacillus sp.) MAAIKATDLRTEGILNPFGLDAERPRLSWSFGQPAGAGSGQSAYRIAVASSEERLKLGEPDVWDSGIVRSCEHVSIPYEGASLMPRRRYYWHVTAWDGQGQPAVSKAAWWETGLLAEAKWSERWIGDAAEAADRGPMIQLRKSFEVKKPVARARAYVTGLGHYELRLNGAKVGDRQLEPGWTNYDKTVLYSVYDVTPGLRQGENAVGVLLGNGFYRVAGGRYAKFKGSFGNPKCLAELVIEYADGTAETIVTDGTWSLSDSPLTFSCIYGGEDYDAGLERTGWDGPGFVEDGDWRRACELEPPPGKLTAQSSPPLAITKRLPARSVSEPRRGVYVYDLGQNFSGWPCIRVSGPNGTRVKLKPAELLTEEGLANQKYSGSPYELNYVLKGEGIEEWHPRFTYYGFRYVQVEGAAPAGEGVEESDLPVLHGLEGHMIGPDVEDAGGFRCSDPLLNRIHEIINWAILSNMKSVFTDCPHREKLGWLEQLHLMGPSVMFNYECEALLEKIMRDMSDAQLPNGMVPTTAPEYVVFEEPWHMFRDAAAWGGSYILLAWEMLRRYGSVGTLERHYEGMGRYVHYLTEASDGFILRGGLGDWYDIGPKGPGFAQNTSVALVETAIFFGLARALGEIALVLGKAEDASAHSRLSESIRTAFHSAFYDTANAMYAEGSDTAIAMPLAIGLAPEELRGVLLDRLVRNIGERGWQTTAGDVGHRYVLSALASGGRSDVVGKMARNPHAPGYAYQVAHGATSLTEAWDGPTVGKSQNHFMLGHLEEWLYASLAGLDYRYRPEVGRYLVKAKPTVVQGVEWAEAWQQLRSGRASVRWELGPSNQMTVRVDIPANSEGLIRIPSSPDTPVLASGPDVAYEGHEDGHAVYRSGPGSYCFTFAANHRTTEMERERM | 0.18 | 3.237 | 2.645 | 5.339
2 | 1081 (protein, Catenovulum agarivorans) MKNSNLFAKLLAVVLIFLSNPTLAVEWTAEWIWSKERFTDPNSWVVIRKEVNLESVGQNSTAYISADTKYWLWINGQLVVFEGSYTGGPSPVKPSPRVDFYPIASNKYYDQVDIGRYLKKGKNTIAALAWYYGDNGQKGTYISSNTGGFIFQAHVGDNVIATDSSWKVLPHPAYDKKVIKKSPYRVAAWSVKYDARKDLNDWSNKAWYMPGYDDSDWQTPRIKRQPPRPPFFGLYPSEIPPLNNYGLANCENYPESKFPFISDGKTIKCKLDFNKNFTPYFDIEAKAGQQIHIKSNMRLNTIETFYTTKAGRQQFESYSWLNGRIIEYRIPKGVKVHGLKYRWTGVGTTPGHFEADDAWYSRIWQMAENTLYICARDNFMDTPDRERGLWIGDVADQASYLFYSMDKPGRDLLKKAIKVTLAFSDSESGIFAGLGPGRFRELPAQSLQFIEQGIWHYYYNTGDLETLKFAYPYVHRYLTLWGIKDNGLATFRTGDWKWTDWGPQDTIDYDVIQNALYYSALVSARKMAKAVGDYTHIGLYSHRINSIKQAYQKHYWQNGYFSSNPNKFKDDRANAIAILFGLAKPEQYQQIVDNVLIPNHFASPHFEWMVYNAMAIAGRYEDALQRMKTRYAKQVDNQALSTLAEYLPSGGTENHAWNAPSTVLSQHIAGIAPTSVAWESYQVMPNMAHFKRVKQFVPSVQGDIDFEIQRDQQTVKIEIDSPENTTAIIGVPKQYFAIQTIMVNGKKLWENGQLTASISGIKLAGEDNKYVKFEVQPGHWLVTAQR | 0.17 | 2.624 | 2.473 | 5.348
3 | 1044 (protein, listed as Streptomyces sp.) MHETHPRRGGMTRRSVLAAGLTTGVLAALGPAAEAAASPAASPAASPAASASAGATPTASWFAAPARAVRPKFRWWWPDGLVDPAEIAREIDQMADAGFGGAEIAAVHHSISDTSVLDTAHHGWGSAPWRDGVKAALRQAARRGLTVDLTLGPSWPVAVPGVTPDDEAAVKELAYGKATLTGGAAFDGPVPAPVYAPASGVTVQKLFAVQAARVDTAYSSGKATGLDVDSVTDLTNRVADGNLRWTPPDSGTWVVLSYWQRGSGQQPEAGPHSSPAAYVIDHFSAAGTAAVTRYWDTAILDSTLRKLLKAAGGAFFEDSVELESKGLQWTPGLPDAFRAHTGRDLLPYLPAVILDNSNQVFAFEARLTQEIRHDFWETVSNLFNEHHLGALKKWAHGHGMKLRSQPYGLQTDAIASAAVLDIPEGESLGFKNLDDYRCLAGGRDMAGSRVLSCESGAYAGGAYNTTWDKFLRTMGGAYAAGVNQTVIHGFSYATAPGVSWPGFAAFSPYSGAPGYGESWGPRQPTWHHVADVAGYIGRVQQVLQSGTVRADVAVFRQTGYTATGIGASWLTSTGVPLGWTHQFLSGPLLDLPNAKVSGKRLAPDGPAYKALFLEGDFFYGSTPTLSVDDAHKLLKFARAGLPTVLLGAFGQALTPGLPDDGETDELRALTAELLALPNVRNVTDKTLVGAAFAELGVTSDVSYSVSSTLLNAHRVTDDADFYYLCNGKHAETVKPPVAAIDHDVTLRSTVRGGAGTVPYLLDPWSGRVTRLARYTRDGDAFTFRVTLQPGETLVVALGRPGLFGNRDGNRPHAVATDADEALFTGGRLAVRASAAGTFTTTLSTGRKVTTKVAEVPAAVTPDRWTLSVDDWRPGADATSTEVVRHSLTLDALLPWSQIPELADVGGIGTYRTTVTLPKSWSSATGALLRLGSVTDTCRVTVNGVRLDPVDRVNPVVDLGGRLRKGANTLEIEVATPLFNRLRVSNPAVFGTAARQAYGLVGPVQLVPYVQRTVA | 0.16 | 3.156 | 2.274 | 5.370
4 | 1009 (protein, Dyadobacter fermentans) MFKILRPIGFLAALLLLTGEMVMGQKSTQIISPSVFQNPPSTYGIRCWWWWLNGNVDKEVITRDLEEMKAKGFSGACLFDAGGAEQRGNAQVPAGPMFGSPQWRELYIHAMREADRLGLVMSMSIQSGWNLGGPDITAEESAKQVAFSQVQVKGNTRISQELPMPKTHHDFYRDIVVLAIPTKVFANRPPIRDFENKAATREVGASVPETRPLLTDIPGTPGEEDASKKQVLNITRHFKNGKLEWRAPAGEWTVLRFGYTATDAEVSTSSGDWQGLVIDYMSEKAFNRYWDTNVEPLLKAIGPLAGKTLRYLQTDSFEAGGMNWTDGFEKEFIKHRGYDPIPYLPVLAGKIIDSREVSNRFLSDLRKTLADLIAEKHYGVFSKRSAAYGIGIQPESAGPHAGPFDGLKNYGYSEIMMSEFWSPSPHRPRPIDRFFVKQAGSAAKIHNKKLVGAESFTTIGPHWNDVMWSDMKPSVDHEFSAGLNLVYLHTFTASPKAMGIPGQEYFAGTHFNPNVTWWNQSTAFIQYLTRCQYLLQSGTSVADVLYYYGDHSPNLGRLKEDDPAKALPGFDYDLINEDRLMELQAKDGKIFLPHGVSYRVLVLPDHKTLSLKALQKVEALVKEGASVIGSKTVTTASLVKYPASEQTVRQIADGLWGTGNEATGSRNVGKGTIAWGITAADFLRSKGVHFDMEITARETGSRYDYIHREDTGADFYFISSQNRAASKMTAAFRMTGKQPELWNPVTGETRPATSFYQKDGKTYIPLEFDPYGSVFVVFRDDIAKDQNGSAASNFVHLETATTLHGSWDVAFDPAWGGPAAVVFNELVSWPDRNEEGIKYYSGKAVYSKKFDASQDVAESKQVFLDLGEVKDIGIAKVTLNGKDLGILWAPPLRVPVGGVLKEKDNVLQIEVVNTWRNRLIGDRTKPVEKRFTKTNVKVLETWQLTPSGLLGPVRLLTGSEQ | 0.16 | 3.762 | 2.379 | 5.408
5 | 1072 (protein, listed as Kribbella flavida) MAEPVAPDGWTSGGPLAVAKLTAEYAEEPHGTDEVRPRLAWIATAPGYGATQSAYQVLVASQPELLSPEQADVWDSGQVGSDAVQVAYDGPALAARTRYHWAVRLWDGQGRAGRWSRPSWFETALLDEGFGAARWIGASTEAAPLLRRPFELTGPVRRARLYASGLAYAVLRVNGQQVGDAVLDPGFTNYDRTVLYVTHDVTELLQAGENVLGAELGRGFFGMTTPNVWRWHQAPWTGDPRLLARLVIDHEDGTTTELVSDGSWRVTSGPTVSDSLYAGERYDARLAQPGWDAPGFDDAAWSPAVELTAPQGTLRAQAHEPIRVVEEVAPVAISSPRAGVQVIDFGRTTAGWAKLRVEAPAGSRFTLVYGETLTADGQVEATNRHVDGDRFQQDEYVAAGHEIEQWEPRFSYKGFRYLQVTGDAEAEVVLKVVHSDVRAASRFDSDVEVYSWLEQAMRRTVLNNLHGIPTDTPIFEKNGWTGDAQVGAPTMASLVDLARFFTKWLDDLRDSQLPDGRLPVIVPSAGWGYAELAPATEWSTVYPFLLREMHRWYGDTRVLADHWDAVLRYLDWELERVEDGLSISVLGDWLPPGYPDGPPPEDSRLTATAYLHRAVTAVVEIGELIGETSELERLRKAAAELADGLNREFLDREAGLYRTAADPDYRQTSNAVPLAFGLVPEDQVPRVVANLVADVQARDFHLNTGCLGVGVLLPVLTQYGHADVAAKLAQQRTYPSWGYWLEEGADTLWEMWEADTRSRNHYFHGTVVQWLLESVAGLRNVGNGWQRIVVRPDARTGSTSAALRTDTVRGRVAASWRLVGRVLQLEVQVPVGCVAEVHVPSEAAADVTAVPSPYAGEPTRSDGYTVYTVPSGQWHFTSRTA | 0.17 | 3.245 | 2.462 | 5.457
6 | 1021 (protein, listed as Paenibacillus sp.) MLQPYAPAIKNYYSAIGIDTPKPIFVWKLSSPLRNQKQTHYRITVAENAESLEEENNLLWDSGKVASDEQLGVMYKGSPLESTSRYCWRVAIWDSSGQSLWSEVQYFITGYLNSEHWSAKWIGDGSDAPFYARYEFDLNKKVKQAFALVSGLGQFKFYMNGRQVGDHEMDPGWTNYHKSVQYVGFDITDHLQSGKNAVGLHVGNGFFAGASGGRHFYTMDKGYEPYGDQLVAIGEWHIEFEDGSRIILRTGEEGWKVHESATTLANVYGSENFDARLYPDGYHVPGFDDSGWKPAQLLKPPAGNLVQQNQPPVKVKQVYDTLSVAEPLPGVYVFDLGQNMAGMFEIYASGPAGSKVIIKPGELMREDGTIATPWDIVTYSEFILAGTGEVEVWKPDFSYYGARWVQIEGCTRDEADTGRPMIHDVKGHFITSASQDTGTLSTDDVRIDKLADIITKAIESNLQSVHTDCPTIEKLGWLEASALMGPSIVYVKQAEELFLKIVRDMMEAQTEEGLIPDIAPEYSLFPDGFRDSIAWGIALLMVPDLLLERYNNFTAIEVAYPAMKRYMDYLKSKEIHDGLIGHGLGDWGIQPQTGGDYIENVETAFYYEGYRLMAKFAGILGFTDELEDYSAEAERIKLNYNKQLLHSLPENSPRYAYCKLGGQFDPANQVVQAIPLAFNLVPEEQLHNVEHALLQAVASRQFHSGEIGLRYLFLALSRLNRNDIVLDMMMQPEHPSYIRFVERGETSLPEFWTDEARSRNHDMMGHILEWLYKELLGISSASGAYKEILIAPFRSGRVKRVKGVHHSIRGEIGVEFSHSAEEIILNVQIPANTTATLQIPLLHGESQLYERGTRVLYEPFNQGAQIYARLKIGSGSYSYVNRV | 0.16 | 3.148 | 2.296 | 5.476
